Consider three molecules from paper doi:10.1101/2021.06.03.446569 (bioRxiv, 2021).

Where two headings read alike, the source gives them in different places. Ends that are not written are not given here. * marks the point of attachment. FITC = O=C1OC2(c3ccc(O)cc3Oc3cc(O)ccc32)c2ccc(NC(=S)*)cc21

Holding throughout (assay): fluorescence polarisation
(In general: In fluorescence polarisation assays a small probe gives low polarisation when free and higher when bound to something large.)

Assay [1] deals with CBP KIX domain (CREBBP KIX domain) (human) (UniProt Q92793).
Chain of CBP KIX domain (CREBBP KIX domain) (human) (Q92793 585-672): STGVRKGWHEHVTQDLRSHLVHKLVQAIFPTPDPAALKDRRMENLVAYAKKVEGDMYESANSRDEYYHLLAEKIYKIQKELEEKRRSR
Assay [2] addresses Human P300 KIX domain (EP300 KIX domain) (human) (UniProt Q09472).
Assay [3] deals with CBP KIX domain (CREBBP KIX domain) (human) (UniProt Q92793). This is another data set of the same source.
For assay [4], the target named is Human P300 KIX domain (EP300 KIX domain) (human) (UniProt Q09472). This is another data set of the same source.
Chain of Human P300 KIX domain (EP300 KIX domain) (human) (Q09472 565-652): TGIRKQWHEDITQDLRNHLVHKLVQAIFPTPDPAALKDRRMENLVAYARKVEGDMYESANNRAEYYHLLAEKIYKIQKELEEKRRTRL
Assay [5] has as its target Human P300 KIX domain (EP300 KIX domain) (human, UniProt Q09472 565-652).
Assay [6] deals with CBP KIX domain (CREBBP KIX domain) (human, UniProt Q92793 585-672).
Chain of CBP KIX domain (CREBBP KIX domain) (Q92793 585-672): as the sequence (Q92793 585-672) above

Chain of Human P300 KIX domain (EP300 KIX domain) (Q09472 565-652): as the sequence (Q09472 565-652) above

As for “MLL28MYB30 (M/M) fusion peptide, purified”, the concentration for half-maximal inhibition (IC50) (as a rule, the point on the concentration scale where inhibition reaches its midpoint) was 22 µM in assay [1], 8.5 µM in assay [2], 23 µM in assay [3] and 8.3 µM in assay [4].

For SDDGNILPSDIMDFVLKNTPSMQAL (also: rhodamine label, position not given here) [Rhodamine-labelled MLL peptide (MLL25)], the dissociation constant Kd (in general, the equilibrium constant for the complex coming apart) was found to be 40 ± 14 µM in assay [5] and 94 ± 11 µM in assay [6].

Regarding {FITC}-KEKRIKELELLLMSTENELKGQQAL [FITC-labelled MYB peptide (MYB25)], in assay [5], the Kd was found to be 3.8 ± 0.2 µM.
